Results published in US7189689.

T1: lecithin:cholesterol acyltransferase (LCAT), purified from human plasma (human, UniProt P04180 25-440)
T1 sequence (looked up): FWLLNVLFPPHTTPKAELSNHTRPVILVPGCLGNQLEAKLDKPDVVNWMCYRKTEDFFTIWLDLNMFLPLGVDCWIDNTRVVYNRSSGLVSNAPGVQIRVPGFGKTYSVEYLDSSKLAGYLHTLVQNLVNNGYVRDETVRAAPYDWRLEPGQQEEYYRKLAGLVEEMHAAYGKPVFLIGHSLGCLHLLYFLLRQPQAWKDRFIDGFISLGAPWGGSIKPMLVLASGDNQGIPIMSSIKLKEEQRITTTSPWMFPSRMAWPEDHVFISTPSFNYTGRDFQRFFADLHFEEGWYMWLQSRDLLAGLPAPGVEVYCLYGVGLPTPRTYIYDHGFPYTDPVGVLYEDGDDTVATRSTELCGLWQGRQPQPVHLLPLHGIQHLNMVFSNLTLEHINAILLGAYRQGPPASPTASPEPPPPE


Target: T1, lecithin:cholesterol acyltransferase …
Experiment: cell-based or functional assay

Binder	ACTIVITY (%) LCAT [%]
EWLKAFYKKVLEKLKELF [peptide 247]	3
EWLKAEYEKVLEKLKELF [peptide 246]	4
EWLKAEYEKVEEKLKELF [peptide 245]	4
DWFKAFYDKVFEKFKEFF [peptide 237]	11
EWLKAFYEKVLEKLKELF [peptide 244]	5

Other lines, results leading:

ACTIVITY (%) LCAT [%]	Binder
5	DWFKAFYDKFFEKFKEFF [peptide 243]
7	EWLEAFYKKVLEKLKELF [peptide 242]
8	DWLKAFYDKVFEKFKEFF [peptide 241]
